Columns and labels:
[1] = biological target: T1, MmeI (Methylophilus methylotrophus); assay: methyltransferase activity; 3H-SAM incorporation; conditions: preparation used with the oligos not specified; label: 5'-FAM both strands
T1 chain: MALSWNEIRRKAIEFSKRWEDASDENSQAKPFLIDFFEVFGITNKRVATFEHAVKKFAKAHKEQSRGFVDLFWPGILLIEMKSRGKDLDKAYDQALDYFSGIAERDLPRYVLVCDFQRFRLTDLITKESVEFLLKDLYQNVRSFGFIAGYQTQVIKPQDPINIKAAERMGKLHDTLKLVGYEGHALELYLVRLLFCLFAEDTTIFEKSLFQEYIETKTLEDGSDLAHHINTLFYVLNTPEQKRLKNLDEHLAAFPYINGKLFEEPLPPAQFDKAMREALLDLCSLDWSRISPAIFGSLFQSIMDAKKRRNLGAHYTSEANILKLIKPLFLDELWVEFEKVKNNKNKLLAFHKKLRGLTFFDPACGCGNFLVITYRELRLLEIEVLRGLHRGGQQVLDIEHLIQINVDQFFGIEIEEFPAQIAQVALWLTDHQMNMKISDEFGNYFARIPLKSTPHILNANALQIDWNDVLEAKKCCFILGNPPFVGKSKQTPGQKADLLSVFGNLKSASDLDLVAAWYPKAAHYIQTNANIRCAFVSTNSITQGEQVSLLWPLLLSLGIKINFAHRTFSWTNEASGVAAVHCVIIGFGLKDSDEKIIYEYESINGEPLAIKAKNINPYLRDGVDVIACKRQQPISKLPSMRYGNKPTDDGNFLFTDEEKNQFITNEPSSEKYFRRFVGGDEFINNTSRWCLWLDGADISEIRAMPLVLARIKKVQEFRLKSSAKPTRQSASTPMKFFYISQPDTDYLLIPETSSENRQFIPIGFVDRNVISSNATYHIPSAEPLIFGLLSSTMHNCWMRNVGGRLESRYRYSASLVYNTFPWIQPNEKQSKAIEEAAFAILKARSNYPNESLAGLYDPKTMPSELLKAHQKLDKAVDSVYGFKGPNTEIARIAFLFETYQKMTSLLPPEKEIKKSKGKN

[2] = biological target: T1, MmeI; assay: methyltransferase activity on top strand; 3H-SAM incorporation; conditions: preparation used with the oligos not specified; label: 5'-FAM both strands

B1: oligo1+oligo2 unmethylated (dsDNA)
DNA 1: GTTTGAAGACTCCGACGCGATGGCCAGCGATCGGCGCCTCAGCTTTTG
DNA 2: CAAAAGCTGAGGCGCCGATCGCTGGCCATCGCGTCGGAGTCTTCAAAC
B1 was tested. Which activity [1] did it give?
The activity was greater than 10 fold over background.

B2: oligo1+oligo4 bottom methylated (dsDNA)
DNA 1: B1 DNA 1
DNA 2: B1 DNA 2
modifications: 6mA in bottom strand at GTCGG(6mA) (position 38)
Which activity [2] does the source give for B2 here?
Its activity is greater than 10 fold over background.
